Target: Fc receptor on THP-1 cells
Assay: cell-based or functional assay

RAGE fusion protein TTP-4000 (Fc fusion), sequence (chain): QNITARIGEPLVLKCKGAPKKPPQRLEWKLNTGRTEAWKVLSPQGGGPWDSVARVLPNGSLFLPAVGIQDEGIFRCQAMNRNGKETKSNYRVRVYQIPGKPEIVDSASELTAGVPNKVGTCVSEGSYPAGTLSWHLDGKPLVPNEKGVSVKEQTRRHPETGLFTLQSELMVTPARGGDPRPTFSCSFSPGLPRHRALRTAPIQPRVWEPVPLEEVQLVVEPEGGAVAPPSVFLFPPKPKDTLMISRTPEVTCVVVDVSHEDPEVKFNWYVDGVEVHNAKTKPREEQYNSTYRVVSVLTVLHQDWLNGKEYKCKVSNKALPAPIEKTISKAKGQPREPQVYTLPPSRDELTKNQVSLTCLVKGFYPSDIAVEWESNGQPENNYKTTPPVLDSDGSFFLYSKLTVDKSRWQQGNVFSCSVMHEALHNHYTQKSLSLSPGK

Row | TNF-α secretion from THP-1 cells on wells coated with 10 ug/well heat aggregated protein [ng/well] | Substance
1 | > 40 | human IgG1 (heat aggregated, coated on the well) (antibody)
2 | < 2 | RAGE fusion protein TTP-4000 (Fc fusion)

From patent US20080199467A1
